Reference: the supplement of paper PMC10065799, “High-throughput profiling of sequence recognition by tyrosine kinases and SH2 domains using bacterial peptide display” (eLife, 2023)

Tests used:
c-Src SH2 = test: SH2 binding enrichment of the phosphorylated peptide, bacterial display (enrichment ratio); higher = better substrate or ligand; peptides without Tyr show the background
SHP2-C SH2 = test: as above
Grb2 SH2 = Grb2 SH2 (UniProt P62993); test: as above
FGFR1 = FGFR1 (UniProt P11362); test: phosphorylation enrichment, bacterial display (enrichment ratio); higher = better substrate or ligand; peptides without Tyr show the background
Sequence of FGFR1 (P11362 whole entry, looked up): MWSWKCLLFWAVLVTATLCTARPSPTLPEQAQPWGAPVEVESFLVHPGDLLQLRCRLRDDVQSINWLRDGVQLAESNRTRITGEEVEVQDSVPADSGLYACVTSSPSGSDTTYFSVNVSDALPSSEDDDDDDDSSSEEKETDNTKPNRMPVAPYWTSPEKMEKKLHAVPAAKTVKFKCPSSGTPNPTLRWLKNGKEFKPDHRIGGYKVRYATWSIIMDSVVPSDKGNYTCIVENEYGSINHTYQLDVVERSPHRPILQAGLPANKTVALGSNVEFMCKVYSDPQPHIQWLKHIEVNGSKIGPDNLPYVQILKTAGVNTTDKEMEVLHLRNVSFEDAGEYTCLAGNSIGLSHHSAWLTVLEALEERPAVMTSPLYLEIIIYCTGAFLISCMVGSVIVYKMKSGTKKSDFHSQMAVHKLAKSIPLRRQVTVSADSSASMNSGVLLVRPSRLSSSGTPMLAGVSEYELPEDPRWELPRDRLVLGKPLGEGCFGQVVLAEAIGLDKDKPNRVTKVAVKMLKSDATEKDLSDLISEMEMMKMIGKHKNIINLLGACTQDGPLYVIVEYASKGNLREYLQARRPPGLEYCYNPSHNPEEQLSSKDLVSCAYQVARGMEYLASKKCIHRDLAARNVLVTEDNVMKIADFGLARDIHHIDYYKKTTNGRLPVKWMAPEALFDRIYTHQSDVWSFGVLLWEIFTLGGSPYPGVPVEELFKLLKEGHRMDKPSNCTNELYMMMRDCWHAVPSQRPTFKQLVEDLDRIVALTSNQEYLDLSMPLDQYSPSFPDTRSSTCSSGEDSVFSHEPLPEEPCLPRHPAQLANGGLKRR

Fes = Fes (UniProt P07332); test: as above
MERTK = MERTK (UniProt Q12866); test: as above
FGFR3 = FGFR3 (UniProt P22607); test: as above
Sequence of FGFR3 (P22607 whole entry, looked up): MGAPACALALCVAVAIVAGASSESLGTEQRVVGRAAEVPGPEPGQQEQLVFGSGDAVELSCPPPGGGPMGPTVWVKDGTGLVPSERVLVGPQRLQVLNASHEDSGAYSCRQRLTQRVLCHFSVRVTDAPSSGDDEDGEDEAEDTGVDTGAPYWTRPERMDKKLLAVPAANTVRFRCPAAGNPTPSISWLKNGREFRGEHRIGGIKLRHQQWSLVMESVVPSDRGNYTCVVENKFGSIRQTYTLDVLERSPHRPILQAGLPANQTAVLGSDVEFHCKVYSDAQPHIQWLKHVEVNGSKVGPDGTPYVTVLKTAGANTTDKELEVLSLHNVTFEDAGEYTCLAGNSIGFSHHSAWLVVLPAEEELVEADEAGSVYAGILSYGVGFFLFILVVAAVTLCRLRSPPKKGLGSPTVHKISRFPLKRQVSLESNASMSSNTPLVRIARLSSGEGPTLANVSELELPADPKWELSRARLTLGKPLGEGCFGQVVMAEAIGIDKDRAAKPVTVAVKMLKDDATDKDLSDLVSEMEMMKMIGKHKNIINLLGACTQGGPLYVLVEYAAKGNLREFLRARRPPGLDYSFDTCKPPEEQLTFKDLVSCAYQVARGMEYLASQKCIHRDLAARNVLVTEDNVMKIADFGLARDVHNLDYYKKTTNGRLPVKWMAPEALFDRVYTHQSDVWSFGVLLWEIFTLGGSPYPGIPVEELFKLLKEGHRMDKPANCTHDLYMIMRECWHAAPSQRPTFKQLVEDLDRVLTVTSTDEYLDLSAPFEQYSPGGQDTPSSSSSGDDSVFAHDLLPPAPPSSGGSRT

c-Src = test: as above
Fer (mouse) = test: as above
EPHB1 = EPHB1 (UniProt P54762); test: as above
Sequence of EPHB1 (P54762 whole entry, looked up): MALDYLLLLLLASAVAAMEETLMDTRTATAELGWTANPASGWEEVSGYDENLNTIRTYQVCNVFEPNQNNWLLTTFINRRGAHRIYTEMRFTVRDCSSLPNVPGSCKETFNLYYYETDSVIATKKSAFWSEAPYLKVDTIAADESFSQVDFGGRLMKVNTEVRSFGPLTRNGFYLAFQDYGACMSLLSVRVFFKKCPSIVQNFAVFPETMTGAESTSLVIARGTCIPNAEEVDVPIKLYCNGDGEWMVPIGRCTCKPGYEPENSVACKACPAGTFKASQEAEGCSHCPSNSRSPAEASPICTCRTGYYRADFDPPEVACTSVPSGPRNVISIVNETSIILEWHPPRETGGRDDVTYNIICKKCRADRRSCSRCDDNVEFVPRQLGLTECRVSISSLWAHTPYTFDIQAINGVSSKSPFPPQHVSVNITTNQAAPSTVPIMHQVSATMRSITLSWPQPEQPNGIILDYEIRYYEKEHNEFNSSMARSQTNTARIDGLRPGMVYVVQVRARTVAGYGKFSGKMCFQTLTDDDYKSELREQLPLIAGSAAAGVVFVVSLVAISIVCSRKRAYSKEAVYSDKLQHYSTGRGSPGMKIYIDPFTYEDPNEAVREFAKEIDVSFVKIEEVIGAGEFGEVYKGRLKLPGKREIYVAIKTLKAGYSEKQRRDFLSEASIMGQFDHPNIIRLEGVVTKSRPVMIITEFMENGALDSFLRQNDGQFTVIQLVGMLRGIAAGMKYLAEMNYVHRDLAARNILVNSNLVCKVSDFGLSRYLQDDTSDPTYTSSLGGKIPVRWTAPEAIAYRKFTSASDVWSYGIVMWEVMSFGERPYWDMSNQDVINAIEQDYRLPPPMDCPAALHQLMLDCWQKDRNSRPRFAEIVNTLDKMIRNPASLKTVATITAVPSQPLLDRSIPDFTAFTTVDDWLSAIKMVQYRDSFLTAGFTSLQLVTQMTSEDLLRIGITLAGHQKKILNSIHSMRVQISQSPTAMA

Hck = Hck (UniProt P08631); test: as above
c-Abl (mouse) = test: as above
EPHB2 = EPHB2 (UniProt P29323); test: as above
Sequence of EPHB2 (P29323 whole entry, looked up): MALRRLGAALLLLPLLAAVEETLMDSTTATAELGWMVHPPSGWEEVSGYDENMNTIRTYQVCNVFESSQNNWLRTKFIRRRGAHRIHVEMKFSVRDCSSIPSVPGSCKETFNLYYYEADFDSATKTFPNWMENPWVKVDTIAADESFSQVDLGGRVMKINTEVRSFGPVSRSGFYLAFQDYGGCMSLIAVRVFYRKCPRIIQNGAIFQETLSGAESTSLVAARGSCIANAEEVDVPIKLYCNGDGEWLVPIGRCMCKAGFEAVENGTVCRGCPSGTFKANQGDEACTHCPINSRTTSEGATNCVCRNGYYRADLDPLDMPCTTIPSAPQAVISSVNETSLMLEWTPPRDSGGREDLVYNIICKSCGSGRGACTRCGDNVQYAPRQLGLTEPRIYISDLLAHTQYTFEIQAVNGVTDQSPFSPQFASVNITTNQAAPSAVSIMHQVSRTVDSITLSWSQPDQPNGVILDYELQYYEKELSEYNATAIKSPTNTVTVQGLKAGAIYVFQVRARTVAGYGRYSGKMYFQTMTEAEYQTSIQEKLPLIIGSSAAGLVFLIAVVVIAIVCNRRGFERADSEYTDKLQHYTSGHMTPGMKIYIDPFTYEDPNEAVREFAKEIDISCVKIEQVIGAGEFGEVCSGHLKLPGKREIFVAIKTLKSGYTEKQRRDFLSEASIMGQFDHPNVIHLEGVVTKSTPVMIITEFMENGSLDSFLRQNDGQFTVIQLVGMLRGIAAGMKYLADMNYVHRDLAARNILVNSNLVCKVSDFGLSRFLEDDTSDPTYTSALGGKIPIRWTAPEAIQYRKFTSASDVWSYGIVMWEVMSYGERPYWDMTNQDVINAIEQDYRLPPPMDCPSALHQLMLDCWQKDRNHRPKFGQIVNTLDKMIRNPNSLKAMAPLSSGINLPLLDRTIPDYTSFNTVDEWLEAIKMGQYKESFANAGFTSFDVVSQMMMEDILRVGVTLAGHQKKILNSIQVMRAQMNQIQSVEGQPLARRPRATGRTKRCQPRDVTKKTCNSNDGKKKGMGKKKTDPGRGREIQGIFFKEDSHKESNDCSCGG

Fyn = Fyn (UniProt P06241); test: as above
Jak2 = Jak2 (UniProt O60674); test: as above
Sequence of Jak2 (O60674 whole entry, looked up): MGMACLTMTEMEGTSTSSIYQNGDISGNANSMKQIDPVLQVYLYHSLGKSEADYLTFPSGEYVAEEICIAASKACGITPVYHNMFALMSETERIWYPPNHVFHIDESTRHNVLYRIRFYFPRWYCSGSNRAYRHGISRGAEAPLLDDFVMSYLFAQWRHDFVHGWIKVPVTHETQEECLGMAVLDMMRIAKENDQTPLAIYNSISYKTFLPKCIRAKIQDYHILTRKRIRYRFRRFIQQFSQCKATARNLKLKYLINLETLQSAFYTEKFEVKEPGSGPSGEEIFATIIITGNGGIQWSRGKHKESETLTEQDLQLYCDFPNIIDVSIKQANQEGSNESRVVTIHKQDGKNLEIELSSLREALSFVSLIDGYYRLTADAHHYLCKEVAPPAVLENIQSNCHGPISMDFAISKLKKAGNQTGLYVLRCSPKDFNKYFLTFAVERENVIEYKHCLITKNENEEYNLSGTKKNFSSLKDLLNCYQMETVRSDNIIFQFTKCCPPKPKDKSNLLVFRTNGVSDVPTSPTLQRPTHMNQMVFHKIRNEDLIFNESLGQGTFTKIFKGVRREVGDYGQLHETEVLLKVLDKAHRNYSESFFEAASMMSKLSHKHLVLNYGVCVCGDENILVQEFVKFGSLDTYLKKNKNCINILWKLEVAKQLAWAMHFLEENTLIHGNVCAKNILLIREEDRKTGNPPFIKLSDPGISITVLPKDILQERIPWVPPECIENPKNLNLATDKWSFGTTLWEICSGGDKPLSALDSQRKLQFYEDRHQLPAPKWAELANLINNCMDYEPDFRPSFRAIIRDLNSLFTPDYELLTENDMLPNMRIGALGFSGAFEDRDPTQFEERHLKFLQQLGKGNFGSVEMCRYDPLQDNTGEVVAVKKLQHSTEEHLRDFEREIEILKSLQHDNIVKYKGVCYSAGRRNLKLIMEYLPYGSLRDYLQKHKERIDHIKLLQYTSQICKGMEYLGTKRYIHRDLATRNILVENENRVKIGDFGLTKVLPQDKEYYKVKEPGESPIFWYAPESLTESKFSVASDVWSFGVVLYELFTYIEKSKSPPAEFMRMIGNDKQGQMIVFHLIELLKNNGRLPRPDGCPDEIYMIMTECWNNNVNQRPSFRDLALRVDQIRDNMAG

AncSZ = test: as above
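For SH2 binding enrichment of the phosphorylated peptide, bacterial display in this document: peptide library displayed on the E. coli surface as eCPX fusions, selected cells deep-sequenced, score is each peptide's frequency after selection divided by its frequency in the input.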
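For phosphorylation enrichment, bacterial display in this document: 11-residue human phosphosite peptides and single-mutation variants displayed on the E. coli surface, counted by deep sequencing, each peptide's frequency after selection divided by its frequency in the unselected input library; frequency after pTyr selection over input frequency; kinase dosed for 20-30% of maximal phosphorylation in three min.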

Sequence of Grb2 SH2 (P62993 whole entry, looked up): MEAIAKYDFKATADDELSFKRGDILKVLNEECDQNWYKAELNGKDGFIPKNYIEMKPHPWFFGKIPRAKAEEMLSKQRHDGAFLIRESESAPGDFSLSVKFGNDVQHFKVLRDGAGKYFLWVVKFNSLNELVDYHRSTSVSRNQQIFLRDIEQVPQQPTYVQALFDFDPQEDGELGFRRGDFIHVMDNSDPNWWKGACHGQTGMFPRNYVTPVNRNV

Row | Sequence | SH2 binding enrichment (c-Src SH2) | SH2 binding enrichment (SHP2-C SH2) | SH2 binding enrichment (Grb2 SH2) | phosphorylation enrichment (FGFR1) | phosphorylation enrichment (Fes) | phosphorylation enrichment (MERTK) | phosphorylation enrichment (FGFR3) | phosphorylation enrichment (c-Src) | phosphorylation enrichment (Fer (mouse)) | phosphorylation enrichment (EPHB1) | phosphorylation enrichment (Hck) | phosphorylation enrichment (c-Abl (mouse)) | phosphorylation enrichment (EPHB2) | phosphorylation enrichment (Fyn) | phosphorylation enrichment (Jak2) | phosphorylation enrichment (AncSZ)
1 | RKKEEYKMALY [F8_Y1990] | 0.931 | 0.762 | 1.38 | 0.58 | 0.708 | 0.462 | 0.33 | 0.546 | 0.289 | 0.337 | 1.05 | 0.632 | 0.387 | 0.46 | 0.477 | 0.492
2 | RKNAKYLLKGE [CDH5_Y82] | 0.749 | 1.06 | 1.19 | 0.712 | 1.37 | 0.718 | 0.545 | 0.687 | 0.666 | 0.848 | 0.577 | 0.901 | 0.821 | 0.64 | 0.827 | 0.779
3 | RKRQFYLYKGK [RSPO4_Y112_C107R] | 0.378 | 0.428 | 0.965 | 0.437 | 0.432 | 0.602 | 0.4 | 0.44 | 0.494 | 0.343 | 0.358 | 0.296 | 0.615 | 0.503 | 0.228 | 0.613
4 | RLAKRYLIWEC [SCN5A_Y694_Q692K] | 0.704 | 0.654 | 0.911 | 0.64 | 1.06 | 0.503 | 0.812 | 0.486 | 0.626 | 0.607 | 0.505 | 0.771 | 0.604 | 0.375 | 0.852 | 1.15
5 | RLLVIYPWTQR [HBG2_Y36_V35I] | 1.31 | 1.49 | 1.97 | 0.594 | 1.46 | 0.58 | 1.03 | 0.588 | 0.498 | 0.836 | 0.635 | 0.907 | 0.639 | 0.793 | 1.12 | 1.98
6 | RLLVVYPWTQG [HBG2_Y36_R41G] | 1.66 | 1.82 | 2.61 | 0.603 | 0.932 | 0.27 | 0.58 | 0.305 | 0.289 | 0.542 | 0.416 | 0.593 | 0.378 | 0.499 | 0.987 | 0.894
7 | RLNAIYQNNLT [GSR_Y158] | 0.796 | 0.986 | 5.31 | 0.502 | 0.75 | 0.414 | 0.665 | 1.08 | 1.06 | 0.632 | 1.25 | 0.539 | 0.609 | 0.772 | 0.565 | 0.813
8 | RLQAAYNLVKR [PFKM_Y103_R100Q] | 1.51 | 2.08 | 1.86 | 0.525 | 1.19 | 0.541 | 0.489 | 0.526 | 0.494 | 0.59 | 0.633 | 0.853 | 0.388 | 0.731 | 0.866 | 0.787
9 | RMSSSYPTGLA [ADM_Y52] | 0.422 | 0.406 | 0.714 | 0.562 | 0.542 | 0.433 | 0.613 | 0.334 | 0.502 | 0.37 | 0.509 | 0.518 | 0.447 | 0.525 | 0.473 | 0.525
10 | RNFDTYTAGLS [RHBDD1_Y264_YF] | 0.428 | 0.514 | 0.664 | 0.407 | 0.802 | 0.452 | 0.355 | 1.15 | 0.394 | 1.9 | 3.7 | 0.436 | 3.55 | 0.9 | 0.511 | 0.62
11 | RNGDRYFKEIV [DCX_Y64_G67E] | 0.393 | 0.588 | 0.749 | 0.703 | 0.705 | 0.514 | 1.51 | 0.559 | 0.472 | 0.55 | 0.559 | 0.548 | 0.626 | 0.572 | 0.469 | 0.546
12 | RNIQQYNSFVS [PRKAR1A_Y373] | 0.602 | 0.683 | 0.782 | 0.573 | 0.743 | 0.457 | 0.787 | 0.589 | 0.534 | 0.391 | 0.64 | 0.986 | 0.611 | 0.648 | 0.667 | 0.768
13 | RNLLIYTEFGK [HGD_Y166_G161R] | 0.457 | 0.194 | 0.94 | 0.583 | 1.22 | 5.3 | 0.945 | 4.93 | 0.827 | 2.86 | 5.2 | 2.48 | 1.12 | 8.15 | 0.997 | 1.4
14 | RNNTEYVRDIG [MUSK_Y577_I575T] | 0.745 | 0.645 | 0.834 | 0.418 | 0.582 | 0.33 | 0.427 | 0.328 | 0.302 | 0.422 | 0.428 | 0.479 | 0.41 | 0.496 | 0.364 | 0.717
15 | RPDSPYSRPHD [DOK2_Y271] | 1.29 | 0.422 | 0.729 | 0.364 | 0.519 | 0.369 | 0.485 | 0.372 | 0.379 | 0.258 | 0.367 | 0.419 | 0.49 | 0.317 | 0.436 | 0.71
16 | RPFVFYFSFLL [PTEN_Y177_R173P_YF] | 0.918 | 1.02 | 2.27 | 0.589 | 1.29 | 0.641 | 0.835 | 0.982 | 0.587 | 0.838 | 0.867 | 1.29 | 0.483 | 0.76 | 1.55 | 1.29
17 | RQGQAYRGQRV [TSHR_Y706_A703G] | 0.489 | 0.334 | 0.552 | 0.452 | 0.805 | 0.454 | 0.447 | 0.453 | 0.649 | 0.338 | 0.47 | 0.458 | 0.339 | 0.509 | 0.48 | 0.718

Row | Sequence | SH2 binding enrichment (c-Src SH2) | SH2 binding enrichment (SHP2-C SH2) | SH2 binding enrichment (Grb2 SH2) | phosphorylation enrichment (FGFR1) | phosphorylation enrichment (Fes) | phosphorylation enrichment (MERTK) | phosphorylation enrichment (FGFR3) | phosphorylation enrichment (c-Src) | phosphorylation enrichment (Fer (mouse)) | phosphorylation enrichment (EPHB1) | phosphorylation enrichment (Hck) | phosphorylation enrichment (c-Abl (mouse)) | phosphorylation enrichment (EPHB2) | phosphorylation enrichment (Fyn) | phosphorylation enrichment (Jak2) | phosphorylation enrichment (AncSZ)
18 | RQNNSYTCFTA [SLC20A2_Y386_R382Q_YF] | 0.923 | 0.998 | 0.85 | 0.663 | 0.898 | 0.938 | 0.904 | 0.712 | 0.751 | 0.819 | 0.544 | 0.802 | 0.658 | 0.537 | 0.951 | 1.04
19 | RQNQEYEILLD [KRT39_Y379] | 1.21 | 1.57 | 1.19 | 0.622 | 1.6 | 0.63 | 0.678 | 0.733 | 0.595 | 1.35 | 0.705 | 1.04 | 1.21 | 0.634 | 1.67 | 1.38
20 | RRGLLYDSDEE [MCM2_Y137] | 0.606 | 0.81 | 0.661 | 0.898 | 1.13 | 0.855 | 1.3 | 0.763 | 1.08 | 0.796 | 1.16 | 0.59 | 0.642 | 1.29 | 0.77 | 1.25
21 | RRGMPYGGLGD [TGM1_Y312_R315L] | 0.33 | 0.501 | 0.712 | 0.445 | 0.663 | 1.02 | 0.443 | 0.398 | 0.456 | 0.302 | 0.391 | 0.66 | 0.536 | 0.503 | 0.352 | 0.618
22 | RRGTGYTLSLP [MAGEC3_Y152] | 0.358 | 0.556 | 0.686 | 0.772 | 0.812 | 0.551 | 0.643 | 0.497 | 0.564 | 0.553 | 0.693 | 0.764 | 0.643 | 0.73 | 0.477 | 0.579
23 | RRIHSYRGYLW [VHL_Y112_H115Y] | 0.53 | 0.534 | 0.902 | 0.581 | 0.905 | 0.488 | 0.915 | 0.517 | 0.676 | 0.614 | 0.64 | 0.375 | 0.605 | 0.551 | 0.717 | 0.646
24 | RSAGKYDVFFI [MECP2_Y120_L124F_YF] | 1.11 | 0.794 | 1.28 | 1.02 | 1.09 | 0.722 | 1.53 | 0.751 | 0.519 | 0.651 | 0.642 | 0.796 | 0.773 | 0.678 | 1.38 | 1.03
25 | RSDSTYRMSAT [NHS_Y1532_S1531T] | 0.341 | 0.472 | 0.769 | 0.558 | 0.581 | 0.335 | 0.637 | 0.632 | 0.587 | 0.411 | 0.436 | 0.697 | 0.556 | 0.528 | 0.709 | 0.587
26 | RSFSPYDFQPC [TNS1_Y796_YF] | 0.668 | 0.613 | 0.744 | 0.66 | 1.29 | 1.69 | 0.788 | 5.06 | 0.822 | 0.672 | 0.959 | 1.18 | 0.929 | 5.66 | 1.28 | 1.5
27 | RSHLSYDVTPE [IQGAP3_Y1098_P1097S] | 0.555 | 0.787 | 0.951 | 0.473 | 1.14 | 0.594 | 0.924 | 0.561 | 0.453 | 0.767 | 0.432 | 0.982 | 0.717 | 0.509 | 1.05 | 0.733
28 | RSPLRYISILT [OR51B6_Y130_T131I] | 1.07 | 1.33 | 1.01 | 0.676 | 0.8 | 0.376 | 0.763 | 0.322 | 0.606 | 0.446 | 0.515 | 0.419 | 0.473 | 0.409 | 0.475 | 0.724
29 | RSRSPYSPVFR [CDK13_Y399_L403F] | 0.463 | 0.405 | 0.706 | 0.459 | 0.77 | 0.655 | 0.462 | 0.576 | 0.403 | 0.546 | 0.736 | 0.58 | 0.452 | 0.6 | 0.737 | 0.812
30 | RTCSSYAIEKI [PARP15_Y520] | 0.563 | 0.855 | 0.938 | 0.589 | 0.986 | 0.344 | 0.629 | 0.383 | 0.371 | 0.532 | 0.581 | 0.667 | 0.702 | 0.302 | 0.894 | 1.13
31 | RVNSAYQDKVS [ACAN_Y100] | 0.455 | 0.679 | 0.784 | 0.513 | 0.796 | 0.498 | 0.567 | 0.484 | 0.437 | 0.642 | 0.396 | 1.06 | 0.648 | 0.517 | 1.36 | 0.849
32 | RWHEGYRQTPK [CD44_Y412] | 0.898 | 1.73 | 1.47 | 0.405 | 0.678 | 0.356 | 0.595 | 0.361 | 0.367 | 0.407 | 0.429 | 0.418 | 0.589 | 0.418 | 0.607 | 0.66
33 | RWHEGYRQTPR [CD44_Y412_K417R] | 1.7 | 1.23 | 1.43 | 0.433 | 0.851 | 0.539 | 0.663 | 0.35 | 0.613 | 0.461 | 0.345 | 0.65 | 0.383 | 0.299 | 0.539 | 0.645
